This note sets out measurements from patent US20210355194A1 (TWIST BIOSCIENCE, published 2021).

The target of this assay is SARS-CoV-2 membrane protein on expressing cells (SARS-CoV-2, UniProt P0DTC5 1-222).

B1: 10-45 (VHH)
VHH: EVQLVESGGGLVQPGGSLRLSCAASGRTFSWYPMGWFRQAPGKEREFVASISWGGARTYYADSVKGRFTISADNSKNTAYLQMNSLKPEDTAVYYCARSTGPRGSGRYRAHWFDSWGQGTLVTVSS
With B1, the “MFI Ratio” value is 6.69.

B2: 9-8 (VHH)
VHH: EVQLVESGGGLVQPGGSLRLSCAASGRTFRRYPMGWFRQAPGKEREFVAAISRSGGSTYYADSVKGRFTISADNSKNTAYLQMNSLKPEDTAVYYCAAKRLRSFASGGSYDWGQGTLVTVSS
Take B2: the “MFI Ratio” value turned out to be 3.76.

B3: 10-56 (VHH)
VHH: EVQLVESGGGLVQPGGSLRLSCAASGHTFRNYGMGWFRQAPGKEREFVAAITSSGSTNYADSVKGRFTISADNSKNTAYLQMNSLKPEDTAVYYCATVPPPRRFLEWLPRRLTYTWGQGTLVTVSS
Regarding B3, the “MFI Ratio” value worked out at 1.39.

B4: 10-54 (VHH)
VHH: EVQLVESGGGLVQPGGSLRLSCAASGRTFSSARMGWFRQAPGKEREFVAGINMISSTKYADSVKGRFTISADNSKNTAYLQMNSLKPEDTAVYYCAHFRRFLPRGYVDYWGQGTLVTVSS
Turning to B4, the “MFI Ratio” value came out at 1.78.

B5: 10-31 (VHH)
VHH: EVQLVESGGGLVQPGGSLRLSCAASGRTFGSYGMGWFRQAPGKEREFVATISIGGRTYYADSVKGRFTISADNSKNTAYLQMNSLKPEDTAVYYCARGSGSGFMWYHGNNNYDRWRYWGQGTLVTVSS
Consider B5, for which the “MFI Ratio” value came to 1.66.

B6: 9-3 (VHH)
VHH: EVQLVESGGGLVQPGGSLRLSCAASGRTFSRYAMGWFRQAPGKEREFVAAISRSGKSTYYADSVKGRFTISADNSKNTAYLQMNSLKPEDTAVYYCAASSVFSDLRYRKNPKWGQGTLVTVSS
With B6, the “MFI Ratio” value stood at 1.61.

B7: 10-44 (VHH)
VHH: EVQLVESGGGLVQPGGSLRLSCAASGRTFRRYTMGWFRQAPGKEREFVAVISWSGGSTKYADSVKGRFTISADNSKNTAYLQMNSLKPEDTAVYYCARKGRWSGMNVWGQGTLVTVSS
For B7, the “MFI Ratio” value stood at 1.46.

B8: 10-52 (VHH)
VHH: EVQLVESGGGLVQPGGSLRLSCAASGRFFSICSMGWFRQAPGKEREFVAGINWRSGGSTYYADSVKGRFTISADNSKNTAYLQMNSLKPEDTAVYYCARGSGWWEYWGQGTLVTVSS
As to B8, the “MFI Ratio” value is 4.11.

B9: 10-28 (VHH)
VHH: EVQLVESGGGLVQPGGSLRLSCAASGSIFSIGMGWFRQAPGKEREFVARIWWRSGATYYADSVKGRFTISADNSKNTAYLQMNSLKPEDTAVYYCAAISIFGRLKWGQGTLVTVSS
B9: the “MFI Ratio” value came out at 2.06.

B10: 10-29 (VHH)
VHH: EVQLVESGGGLVQPGGSLRLSCAASGRTFTSYRMGWFRQAPGKEREFVAEISSSGGYTYYADSVKGRFTISADNSKNTAYLQMNSLKPEDTAVYYCARVGPLRFLAQRPRLRPDYWGQGTLVTVSS
For the molecule B10, the “MFI Ratio” value is 1.48.

B11: 10-42 (VHH)
VHH: EVQLVESGGGLVQPGGSLRLSCAASGITIRTHAMGWFRQAPGKEREFVATISRSGGNTYYADSVKGRFTISADNSKNTAYLQMNSLKPEDTAVYYCTTAGVLRYFDWFRRPYWGQGTLVTVSS
On to B11, for which the “MFI Ratio” value is 1.74.

B12: 10-5 (VHH)
VHH: EVQLVESGGGLVQPGGSLRLSCAASGRSLGIYRMGWFRQAPGKEREFVAAITSGGRKNYADSVKGRFTISADNSKNTAYLQMNSLKPEDTAVYYCAKRTIFGVGRWLDPWGQGTLVTVSS
As for B12, the “MFI Ratio” value was 1.59.

B13: 10-43 (VHH)
VHH: EVQLVESGGGLVQPGGSLRLSCAASGRTFRRYHMGWFRQAPGKEREFVAAITSGGRTNYADSVKGRFTISADNSKNTAYLQMNSLKPEDTAVYYCTTDGLRYFDWFPWASAFDIWGQGTLVTVSS
B13: the “MFI Ratio” value worked out at 1.55.

B14: 10-22 (VHH)
VHH: EVQLVESGGGLVQPGGSLRLSCAASGRTYYAMGWFRQAPGKEREFVGAIDWSGRRITYADSVKGRFTISADNSKNTAYLQMNSLKPEDTAVYYCARVRFSRLGGVIGRPIDSWGQGTLVTVSS
B14: the “MFI Ratio” value was determined as 4.47.

B15: 9-6 (VHH)
VHH: EVQLVESGGGLVQPGGSLRLSCAASGRTFSRFAMGWFRQAPGKEREFVAAIRWSGGRTVYADSVKGRFTISADNSKNTAYLQMNSLKPEDTAVYYCAIEPGTIRNWRNRVPFARGNFGWGQGTLVTVSS
With B15, the “MFI Ratio” value is 1.47.

B16: 10-40 (VHH)
VHH: EVQLVESGGGLVQPGGSLRLSCAASGRTFSTYTMGWFRQAPGKEREFVARIWRSGGNTYYADSVKGRFTISADNSKNTAYLQMNSLKPEDTAVYYCARGVRGVFRAYFDHWGQGTLVTVSS
Take B16: the “MFI Ratio” value worked out at 3.78.

B17: 10-19 (VHH)
VHH: EVQLVESGGGLVQPGGSLRLSCAASGRTFRSYGMGWFRQAPGKEREFVASISRSGTTMYADSVKGRFTISADNSKNTAYLQMNSLKPEDTAVYYCARRGLLQWFGAPNSWFDPWGQGTLVTVSS
On to B17, for which the “MFI Ratio” value turned out to be 1.54.

B18: 10-18 (VHH)
VHH: EVQLVESGGGLVQPGGSLRLSCAASGRMYNSYSMGWFRQAPGKEREFVARISPGGTFYADSVKGRFTISADNSKNTAYLQMNSLKPEDTAVYYCTTSARSGWFWRYFDSWGQGTLVTVSS
As for B18, the “MFI Ratio” value amounted to 8.06.

B19: 10-41 (VHH)
VHH: EVQLVESGGGLVQPGGSLRLSCAASGRNLRMYRMGWFRQAPGKEREFVALISRVGVTSYADSVKGRFTISADNSKNTAYLQMNSLKPEDTAVYYCARGTSFFNFWSGSLGRVGFDSWGQGTLVTVSS
B19: the “MFI Ratio” value was found to be 1.75.

B20: 10-51 (VHH)
VHH: EVQLVESGGGLVQPGGSLRLSCAASGRFFSTRVMGWFRQAPGKEREFVARIWPGGSTYYADSVKGRFTISADNSKNTAYLQMNSLKPEDTAVYYCARDRGIFGVSRWGQGTLVTVSS
With B20, the “MFI Ratio” value was determined as 1.47.

B21: 10-30 (VHH)
VHH: EVQLVESGGGLVQPGGSLRLSCAASGRTFSSFRFRAMGWFRQAPGKEREFVALIFSGGSTYYADSVKGRFTISADNSKNTAYLQMNSLKPEDTAVYYCAREWGRWLQRGSYWGQGTLVTVSS
B21: the “MFI Ratio” value was determined as 1.57.

B22: 10-50 (VHH)
VHH: EVQLVESGGGLVQPGGSLRLSCAASGRTLSTYNMGWFRQAPGKEREFVASISRFGRTNYADSVKGRFTISADNSKNTAYLQMNSLKPEDTAVYYCARRGKLSAAMHWFDPWGQGTLVTVSS
On to B22, for which the “MFI Ratio” value was 1.72.

B23: 9-10 (VHH)
VHH: EVQLVESGGGLVQPGGSLRLSCAASGRMFSSRSMGWFRQAPGKEREFVALINRSGGSQFYADSVKGRFTISADNSKNTAYLQMNSLKPEDTAVYYCAARRWIPPGPIWGQGTLVTVSS
As to B23, the “MFI Ratio” value came to 1.52.

B24: 10-26 (VHH)
VHH: EVQLVESGGGLVQPGGSLRLSCAASGRTFSGFTMSSTWMGWFRQAPGKEREFVAGIITNGSTNYADSVKGRFTISADNSKNTAYLQMNSLKPEDTAVYYCARRVAYSSFWSGLRKHMDVWGQGTLVTVSS
On to B24, for which the “MFI Ratio” value came out at 5.2.

B25: 10-57 (VHH)
VHH: EVQLVESGGGLVQPGGSLRLSCAASGRTFSRYAMGWFRQAPGKEREFVASITKFGSTNYADSVKGRFTISADNSKNTAYLQMNSLKPEDTAVYYCAKERESRFLKWRKTDWGQGTLVTVSS
For the molecule B25, the “MFI Ratio” value was 1.79.

B26: 10-13 (VHH)
VHH: EVQLVESGGGLVQPGGSLRLSCAASGGLTFSSNTMGWFRQAPGKEREFVASISSSGRTSYADSVKGRFTISADNSKNTAYLQMNSLKPEDTAVYYCARRVRRLWFRSYFDLWGQGTLVTVSS
Consider B26, for which the “MFI Ratio” value was determined as 8.83.

B27: 10-48 (VHH)
VHH: EVQLVESGGGLVQPGGSLRLSCAASGRTFRRYAMGWFRQAPGKEREFVAAINRSGSTEYADSVKGRFTISADNSKNTAYLQMNSLKPEDTAVYYCARQHQDFWTGYYTVWGQGTLVTVSS
For the molecule B27, the “MFI Ratio” value amounted to 4.11.

B28: 10-11 (VHH)
VHH: EVQLVESGGGLVQPGGSLRLSCAASGRNFRRNSMGWFRQAPGKEREFVAGISWSGARTHYADSVKGRFTISADNSKNTAYLQMNSLKPEDTAVYYCARVSRRPRSPPGYYYGMDVWGQGTLVTVSS
Consider B28, for which the “MFI Ratio” value is 1.56.

B29: 9-1 (VHH)
VHH: EVQLVESGGGLVQPGGSLRLSCAASGRTFSRLAMGWFRQAPGKEREFVAAISRSGRSTSYADSVKGRFTISADNSKNTAYLQMNSLKPEDTAVYYCAARRSQILFTSRTDYEWGQGTLVTVSS
B29: the “MFI Ratio” value is 8.19.

B30: 10-17 (VHH)
VHH: EVQLVESGGGLVQPGGSLRLSCAASGRTFSIYAMGWFRQAPGKEREFVARITRGGITKYADSVKGRFTISADNSKNTAYLQMNSLKPEDTAVYYCARGLGWLLGYYWGQGTLVTVSS
Turning to B30, the “MFI Ratio” value turned out to be 1.59.

B31: 10-9 (VHH)
VHH: EVQLVESGGGLVQPGGSLRLSCAASGIPFRSRTMGWFRQAPGKEREFVAGITGSGRSQYYADSVKGRFTISADNSKNTAYLQMNSLKPEDTAVYYCARGARIFGSVAPWRGGNYYGMDVWGQGTLVTVSS
With B31, the “MFI Ratio” value amounted to 1.61.

B32: 10-47 (VHH)
VHH: EVQLVESGGGLVQPGGSLRLSCAASGRPLRRYVMGWFRQAPGKEREFVAAITNGGSTKYADSVKGRFTISADNSKNTAYLQMNSLKPEDTAVYYCARGTPWRLLWFGTLGPPPAFDYWGQGTLVTVSS
B32: the “MFI Ratio” value came to 1.62.
